B1: Hairpin Ribozyme (parent)
chain: GUCCUCUUUCACGUGCGCGUGAAAGAGAGAAGUGAACCAGAGAAACACACGUUGUGGUAUAUUACCUGGUA

Variants of: B1
Assay: self-cleavage, relative activity (ratio to wild type); higher = more cleavage; co-transcriptional
With GUCGUCUUUCACGUGCGCGUGAAAGAGAGAAGUGAACCAGAGAAACUCACGUUGUGGUAUAUUACCUGGUA the self-cleavage was 0.0972. For GUCGUCUUUCACGUGCGCGUGAAAGAGAGAAGUGAACCAGAGAAACCCACGUUGUGGUAUAUUACCUGGUA, the self-cleavage was 0.13. Variant GUCGUCUUUCACGUGCACGUGAAAGAGAGAAGUGAACCAGAGAAACACACGUUGUGGUAUAUUACCUGGUA has a self-cleavage of 0.159. Work on GUCAUCUGUCACGUGCGCGUGAAAGAGAGAAGUGAACCAGAGAAACACACGUUGUGGUAUAUUACCUGGUA yielded a self-cleavage of 0.0842. Work on GUCGUCUUUCAUGUGCGCGUGAAAGAGAGAAGUGAACCAGAGAAACACACGUUGUGGUAUAUUACCUGGUA yielded a self-cleavage of 0.187. Work on GUCGUCUUUCACGUGCGCGUGAAAUAGAGAAGUGAACCAGAGAAACACACGUUGUGGUAUAUUACCUGGUA yielded a self-cleavage of 0.177. In the case of GUCAUCUUUCACGAGCGCGUGAAAGAGAGAAGUGAACCAGAGAAACACACGUUGUGGUAUAUUACCUGGUA, the self-cleavage is reported as 0.191. Work on GUCAUCUUUCACGUGCGCGUGAAAGAGAGAAGUAAACCAGAGAAACACACGUUGUGGUAUAUUACCUGGUA yielded a self-cleavage of 0.37. In the case of GUCAUCUUUCACGUGCGCGUGAAAGAGAGAAGUCAACCAGAGAAACACACGUUGUGGUAUAUUACCUGGUA, the self-cleavage is reported as 0.676. GUCGUCUUUCACGUGCGCGUGAAAGAGAGAAGUGAACCAGAGAAACACCCGUUGUGGUAUAUUACCUGGUA showed a self-cleavage of 0.161. Variant GUCAUCUUUCACGUGCGCGUGAAAGAGAGAAGUGAACCAGAGAAACACACGUUGUGGUAUAUUACCUGGGA has a self-cleavage of 0.154. GUCAUCUUUCACGUGCGCGUGAAAGAGAGAAGUGAACCAGAGAAACACACGUCGUGGUAUAUUACCUGGUA showed a self-cleavage of 0.206. GUCAUCUUUCACGUGCGCGUGAAAGAGAGAAGUGAACCAGAGAAACACACGUAGUGGUAUAUUACCUGGUA showed a self-cleavage of 0.363. Work on GUCGUCUUUCACGUGCGCGUGAAAGAGAGAAGUGAACCAGUGAAACACACGUUGUGGUAUAUUACCUGGUA yielded a self-cleavage of 0.558. Variant GUCGUCUUUCACGUGCGCGUGAAAGAGAGAAGUGAACCAGCGAAACACACGUUGUGGUAUAUUACCUGGUA has a self-cleavage of 0.236. In the case of GUCAUCUUUCACGUGCACGUGAAAGAGAGAAGUGAACCAGAGAAACACACGUUGUGGUAUAUUACCUGGUA, the self-cleavage is reported as 0.174. With GUCGUCUUUCACGUGCGCGUGAAAGAGAAAAGUGAACCAGAGAAACACACGUUGUGGUAUAUUACCUGGUA the self-cleavage was 0.0497. With GUCGUCUUUCACGUGCGCGUGAAAGAGAGAAGUGAACCAGAGAAACAGACGUUGUGGUAUAUUACCUGGUA the self-cleavage was 0.0514. Variant GUCGUCUUUCACGUUCGCGUGAAAGAGAGAAGUGAACCAGAGAAACACACGUUGUGGUAUAUUACCUGGUA has a self-cleavage of 0.185. For GUCGUCUUUCACGUGCGCGUGAAAGAGAGAAGUCAACCAGAGAAACACACGUUGUGGUAUAUUACCUGGUA, the self-cleavage was 1.19. Work on GUCGUCUUUCACGUGCGCGUGAAAGAGAGAAGUGCACCAGAGAAACACACGUUGUGGUAUAUUACCUGGUA yielded a self-cleavage of 0.16. GUCGUCUUUCACGUGCGCGUGAAAGAGAGAAGUGUACCAGAGAAACACACGUUGUGGUAUAUUACCUGGUA gave a self-cleavage of 0.157. GUCGUCUUUCACUUGCGCGUGAAAGAGAGAAGUGAACCAGAGAAACACACGUUGUGGUAUAUUACCUGGUA showed a self-cleavage of 0.21. With GUCAUCUUACACGUGCGCGUGAAAGAGAGAAGUGAACCAGAGAAACACACGUUGUGGUAUAUUACCUGGUA the self-cleavage was 0.233. Work on GUCAUCUUUCACGUGCGCGUGAAAGAGAGAAGUGAACCAGACAAACACACGUUGUGGUAUAUUACCUGGUA yielded a self-cleavage of 0.132. GUCAUCUUUCACGUGCGCGUGAAAGAGAGAAGUGAACCAGAGAAACACACGUUGUGGUAUAUUACCCGGUA gave a self-cleavage of 0.0871. For GUCAUCUUUCACGUGCGCGUGAAAGAGAGAAGUGAACCAGAGAAACACACGUUAUGGUAUAUUACCUGGUA, the self-cleavage was 0.184. GUCAUCUUUCACGUGCGCGUGAAAGAGAGAAGUGAACCAGAGAAACACACGUUCUGGUAUAUUACCUGGUA gave a self-cleavage of 0.133. GUCAUCUUUCACGUGCGCGUGAAAGAGAGAAGUGAACCAGAGAAACACACGUUUUGGUAUAUUACCUGGUA gave a self-cleavage of 0.118. GUCGUCUUUCACGUGCGCGUGAAAGGGAGAAGUGAACCAGAGAAACACACGUUGUGGUAUAUUACCUGGUA showed a self-cleavage of 0.16. GUCAUCUUUCACGUGCGCCUGAAAGAGAGAAGUGAACCAGAGAAACACACGUUGUGGUAUAUUACCUGGUA gave a self-cleavage of 0.143. In the case of GUCGUCUUUCACGUGCGCGUGAAAGAGAGAAGUGAACCAGAGAAACACACGUUGUGGUAUAUUACGUGGUA, the self-cleavage is reported as 0.209. GUCGUCUUUCGCGUGCGCGUGAAAGAGAGAAGUGAACCAGAGAAACACACGUUGUGGUAUAUUACCUGGUA gave a self-cleavage of 0.272. Variant GUCGUCUUUCACGUGCGCAUGAAAGAGAGAAGUGAACCAGAGAAACACACGUUGUGGUAUAUUACCUGGUA has a self-cleavage of 0.143. In the case of GUCGUCUUUCACGUGCGCUUGAAAGAGAGAAGUGAACCAGAGAAACACACGUUGUGGUAUAUUACCUGGUA, the self-cleavage is reported as 0.225. With GUCAUCUUUCACGUGCGCGUGAAAGAGAGAAGUGAACCAGAGAAACACACGUUGUGGUACAUUACCUGGUA the self-cleavage was 0.521. Variant GUCAUCUUUCACGUGCGCGUGAAAGAGAGAAGUGAACCAGAGAAACACACGUUGUGGUAGAUUACCUGGUA has a self-cleavage of 0.139. Work on GUCAUCUUUCACGUGCGCGUGAAAGAGAGAAGUGAACCAGAGAAACACACGUUGUGGUAUAUUACCUGUUA yielded a self-cleavage of 0.169.
